Experimental data: patent US20230348616A1 (MIE UNIVERSITY, published 2023)
Read-outs that look alike come from different tables or passages of the source.

Assays:
[1] = molecular target: T1, HLA-A2 / homologous peptide IL20RB complex on T2 cells (human); experiment: flow cytometry, peptide-pulsed T2 cells
T1 construct: whole, on cells; also called T2 cells supplemented with homologous peptide IL20RB

[2] = molecular target: T2, HLA-A2 / homologous peptide CD163 complex on T2 cells (human); experiment: flow cytometry, peptide-pulsed T2 cells
T2 construct: whole, on cells; also called T2 cells supplemented with homologous peptide CD163

[3] = molecular target: T3, HLA-A2 / homologous peptide PRKD2 complex on T2 cells (human); experiment: flow cytometry, peptide-pulsed T2 cells
T3 construct: whole, on cells; also called T2 cells supplemented with homologous peptide PRKD2

[4] = molecular target: T4, HLA-A2 / homologous peptide P2RY8 complex on T2 cells (human); experiment: flow cytometry, peptide-pulsed T2 cells
T4 construct: whole, on cells; also called T2 cells supplemented with homologous peptide P2RY8

[5] = molecular target: T5, HLA-A2 / homologous peptide DOLPP1 complex on T2 cells (human); experiment: flow cytometry, peptide-pulsed T2 cells
T5 construct: whole, on cells; also called T2 cells supplemented with homologous peptide DOLPP1

[6] = molecular target: T1, HLA-A2 / homologous peptide IL20RB …; experiment: flow cytometry on peptide-pulsed T2 cells, scFv 100 nM
Method: (§1) The cells were washed 2 times in PBS containing 5% FBS, immobilized with Mildform 10 N (FUJIFILM Wako Pure Chemical Corporation) overnight, and resuspended in PBS containing 5% FBS. The cell suspensions were subjected to detection using a flow cytometer (CantoII, Becton Dickinson). […] The standardized gMFI indicating the binding affinity of each scFv standardized with the amount of the HLA/peptide complex on the T2 cells was determined in accordance with the following equation.
(§2) The 9-mer peptide shown in FIG. 2A was selected as a homologous peptide for evaluation of binding specificity of anti-HLA/NY-ESO scFv. […] The standardized gMFI indicating the binding affinity of each scFv standardized with the amount of the HLA/peptide complex on the T2 cells was determined in accordance with the following equation.

[7] = molecular target: T2, HLA-A2 / homologous peptide CD163 …; experiment: as above
Method: as §1, §2

[8] = molecular target: T6, HLA-A2/NY-ESO peptide complex presented on cells (human); experiment: as above
T6 construct: whole, on cells; also called HLA/NY-ESO; T2 cells supplemented with the NY-ESO peptide
Method: as §1, §2

[9] = molecular target: T3, HLA-A2 / homologous peptide PRKD2 …; experiment: as above
Method: as §1, §2

[10] = molecular target: T4, HLA-A2 / homologous peptide P2RY8 …; experiment: as above
Method: as §1, §2

[11] = molecular target: T7, gp100 (human); experiment: as above
T7 construct: cell surface;cell surface complex; also called HLA-A2 / gp100 peptide complex on T2 cells
Method: as §1, §2

[12] = molecular target: T5, HLA-A2 / homologous peptide DOLPP1 …; experiment: as above
Method: as §1, §2

[13] = molecular target: T6, HLA-A2/NY-ESO peptide complex presented …; experiment: as above; remark: listed apart in the source
Method: (§3) The resultant was washed two times in the AIM-V medium containing 20% FBS, the concentration thereof was adjusted to an adequate level with PBS containing 5% FBS, the LIVE/DEAD Fixable Dead Cell Stain Kit (Thermo Fisher Scientific) was added thereto, and the resultant was allowed to stand at 4° C. for 30 minutes. The cells were washed 2 times in PBS containing 5% FBS, the washed cells were divided into two groups, the cells in PBS containing 5% FBS were seeded on a 96-well U-bottom microplate at 10⁵ cells/well, and the plate was subjected to centrifugation, followed by removal of the supernatant. Anti-HLA/NY-ESO scFv diluted to 100 nM with PBS containing 5% FBS was added at 25 μl/well to one of the divided cells, and the resultant was allowed to stand at 4° C. for 30 minutes. The cells were washed 2 times in PBS containing 5% FBS, Penta-His Alexa Fluor488 (QIAGEN) diluted in PBS containing 5% FBS was added at 25 μl/well, and the resultant was allowed to stand at 4° C. for 30 minutes. The cells were washed 2 times in PBS containing 5% FBS, Anti-mouse-IgG Alexa Fluor488 (Thermo Fisher Scientific) diluted in PBS containing 5% FBS was added at 25 μl/well, and the resultant was allowed to stand at 4° C. for 30 minutes. The cells were washed 2 times in PBS containing 5% FBS, immobilized with Mildform 10 N (FUJIFILM Wako Pure Chemical Corporation) overnight, and resuspended in PBS containing 5% FBS. […] The cells were washed 2 times in PBS containing 5% FBS, immobilized with Mildform 10 N (FUJIFILM Wako Pure Chemical Corporation) overnight, and resuspended in PBS containing 5% FBS. The cell suspensions were subjected to detection using a flow cytometer (CantoII, Becton Dickinson). […] The standardized gMFI indicating the binding affinity of each scFv standardized with the amount of the HLA/peptide complex on the T2 cells was determined in accordance with the following equation.

[14] = molecular target: T7, gp100; experiment: as above; remark: listed apart in the source
Method: as §3

[15] = molecular target: T8, HLA-A*0201/β2-microglobulin/NY-ESO peptide complex (human, biotinylated with E. coli biotin ligase at the added recognition sequence (biotinylated form used in the ELISA)); experiment: SPR (Biacore T200), scFv captured by anti-His antibody, HLA/NY-ESO as analyte, single cycle kinetics
T8 construct: also called HLA/NY-ESO; HLA-A2/NY-ESO
Method: With the use of Biacore T200, anti-HLA/NY-ESO scFv was captured as a ligand by the immobilized anti-His antibody, and the antigen was assayed as an analyte. As the antigen, HLA/NY-ESO prepared in 1)-1 was used. The anti-His antibody (His Capture kit, GE Healthcare) was immobilized on Sensor Chip CM5 (GE Healthcare) in accordance with the instructions of the kit. The anti-HLA/NY-ESO scFv constructs diluted to 0.5 μg/ml in HBS-EP+ (GE Healthcare) to be evaluated were brought into contact therewith at 10 μl/min for 60 seconds for immobilization. Thereafter, the samples were added to the HLA/NY-ESO analytes diluted to various levels with HBS-EP+ at a flow rate of 30 μl/min for 120 seconds and dissociation was assayed for 600 seconds.

Row | Binder | binding result [1] | binding result [2] | binding result [3] | binding result [4] | binding result [5] | standardized gMFI [6] | standardized gMFI [7] | standardized gMFI [8] | standardized gMFI [9] | standardized gMFI [10] | standardized gMFI [11] | standardized gMFI [12] | standardized gMFI [13] | standardized gMFI [14] | Kd [15] [nM]
1 | NYA-2035 (scFv) scFv: GEVQLVESGGGVVQPGRSLTPSCSASGFSIRSYDIHWVRLAPGKGLEWVATISYDGSQKYFADSVKGRFTIFRDESENMVYLQMSGLRVEDTAVYHCARGSSGHYEAFDIWGQGTMVTVSSGGGGSGGGGSGGGGSQSVLTQPPSVSAAPGQKVTISCSGSSSNIGNWKVSWYQQLPGTAPKLLIYDNNKRPSGIPDRFSGSKSGTSATLGITGLQTGDEADYYCGTWDSSLSAPWVFGGGTKVTVLGAAAGAGGDYKDDDDKGAAAHHHHHH | no binding (tested: 100 nM) | no binding (tested: 100 nM) | no binding (tested: 100 nM) | no binding (tested: 100 nM) | no binding (tested: 100 nM) | 0.41 | 0.48 | 11.1 | 0.33 | 0.69 | 0.29 | 0.38 | 9.94 | 0.38 | 3.2
2 | NYA-2143 (scFv) scFv: GEVQLVESGGGVVQPGRSLTPSCSASGFSIRSYDIHWVRLAPGKGLEWVATISYDGSQKYFADSVKGRFTIFRDESENMVYLQMSGLRVEDTAVYHCARGSSGHYEAFDIWGQGTMVTVSSGGGGSGGGGSGGGGSQSVLTQPPSVSAAPGQKVTISCSGSSSNIGNWYVSWYQRLPGTAPKLLIYDNNKRPSGIPDRFSGSKSGTSATLGITGLQTGDEADYYCGTWDSSLSAPWVFGGGTKVTVLGAAAGAGGDYKDDDDKGAAAHHHHHH | no binding (tested: 100 nM) | no binding (tested: 100 nM) | no binding (tested: 100 nM) | no binding (tested: 100 nM) | no binding (tested: 100 nM) | 0.42 | 0.46 | 13.5 | 0.32 | 0.69 | 0.31 | 0.38 | 13.1 | 0.38 | 0.9
3 | NYA-2060 (scFv, also called NYA-2060 tag adduct) scFv: GEVQLVESGGGLVQPGGSLRLSCAASGFSIRSYDIHWVRQAPGKGLEWVATISYDGSQKYYADSVKGRFTISRDESKNTLYLQMNSLRAEDTAVYHCARGSSGHYEAFDIWGQGTLVTVSSGGGGSGGGGSGGGGSQSVLTQPPSVSAAPGQKVTISCSGSSSNIGNWYVSWYQQLPGTAPKLLIYDNNKRPSGIPDRFSGSKSGTSATLGITGLQTGDEADYYCGTWDSSLSAPWVFGGGTKVTVLGAAAGAGGDYKDDDDKGAAAHHHHHH | no binding (tested: 100 nM) | no binding (tested: 100 nM) | no binding (tested: 100 nM) | no binding (tested: 100 nM) | no binding (tested: 100 nM) | 0.45 | 0.47 | 11.2 | 0.33 | 0.62 | 0.32 | 0.42 | 8.78 | 0.41 | 1.1
4 | NYA-2044 (scFv, also called NYA-2044 tag adduct) scFv: GEVQLVESGGGLVQPGGSLRLSCAASGFSIRSYDIHWVRLAPGKGLEWVATISYDGSQKYYADSVKGRFTISRDESKNTLYLQMNSLRAEDTAVYHCARGSSGHYEAFDIWGQGTLVTVSSGGGGSGGGGSGGGGSQSVLTQPPSVSAAPGQKVTISCSGSSSNIGNWYVSWYQQLPGTAPKLLIYDNNKRPSGIPDRFSGSKSGTSATLGITGLQTGDEADYYCGTWDSSLSAPWVFGGGTKVTVLGAAAGAGGDYKDDDDKGAAAHHHHHH | no binding (tested: 100 nM) | no binding (tested: 100 nM) | no binding (tested: 100 nM) | no binding (tested: 100 nM) | no binding (tested: 100 nM) | 0.43 | 0.47 | 14.3 | 0.33 | 0.72 | 0.32 | 0.38 | 12.9 | 0.39 | 0.8
5 | NYA-2061 (scFv, also called NYA-2061 tag adduct) scFv: GEVQLVESGGGLVQPGGSLRLSCAASGFSIRSYDIHWVRQAPGKGLEWVATISYDGSQKYYADSVKGRFTISRDESKNTLYLQMNSLRAEDTAVYHCARGSSGHYEAFDIWGQGTLVTVSSGGGGSGGGGSGGGGSQSVLTQPPSASGTPGQRVTISCSGSSSNIGNWYVSWYQQLPGTAPKLLIYDNNKRPSGVPDRFSGSKSGTSASLAISGLQSEDEADYYCGTWDSSLSAPWVFGGGTKLTVLGAAAGAGGDYKDDDDKGAAAHHHHHH | no binding (tested: 100 nM) | no binding (tested: 100 nM) | no binding (tested: 100 nM) | no binding (tested: 100 nM) | no binding (tested: 100 nM) | 0.46 | 0.48 | 10.4 | 0.33 | 0.57 | 0.32 | 0.4 | 8.62 | 0.4 | 1.5
6 | NYA-2047 (scFv) scFv: GQVQLVESGGGVVQPGRSLRLSCAASGFSIRSYDMHWVRQAPGKGLEWVATISYDGSQKYYADSVKGRFTISRDNSKNTLYLQMSSLRAEDTAVYHCARGSSGHYEAFDIWGQGTLVTVSSGGGGSGGGGSGGGGSQSVLTQPPSVSAAPGQKVTISCSGSSSNIGNWYVSWYQQLPGTAPKLLIYDNNKRPSGIPDRFSGSKSGTSATLGITGLQTGDEADYYCGTWDSSLSAPWVFGGGTKVTVLGAAAGAGGDYKDDDDKGAAAHHHHHH | no binding (tested: 100 nM) | no binding (tested: 100 nM) | no binding (tested: 100 nM) | no binding (tested: 100 nM) | no binding (tested: 100 nM) | 0.43 | 0.47 | 10.2 | 0.35 | 0.72 | 0.3 | 0.4 | 7.99 | 0.39 | 5.3
7 | NYA-2045 (scFv, also called NYA-2045 tag adduct) scFv: GEVQLVESGGGLVQPGGSLRLSCAASGFSIRSYDIHWVRLAPGKGLEWVATISYDGSQKYYADSVKGRFTISRDESKNTLYLQMNSLRAEDTAVYHCARGSSGHYEAFDIWGQGTLVTVSSGGGGSGGGGSGGGGSQSVLTQPPSASGTPGQRVTISCSGSSSNIGNWYVSWYQQLPGTAPKLLIYDNNKRPSGVPDRFSGSKSGTSASLAISGLQSEDEADYYCGTWDSSLSAPWVFGGGTKLTVLGAAAGAGGDYKDDDDKGAAAHHHHHH | no binding (tested: 100 nM) | no binding (tested: 100 nM) | no binding (tested: 100 nM) | no binding (tested: 100 nM) | no binding (tested: 100 nM) | 0.47 | 0.48 | 13.8 | 0.34 | 0.58 | 0.3 | 0.43 | 9.03 | 0.39 | 0.8
